Measured values taken from the supplement of paper PMC7877785.
± gives the uncertainty stated by the source.

Experiment: self-splicing fitness, log relative to wild type (ln ratio); higher = more splicing; Tetrahymena group I intron in knt gene, E. coli kanamycin selection, DiMSum; sequences stand for … in CUCUCU…GGAGGGAAAAGUUAUCAGGCAUGCACCUGGUAGCUAGUCUUUAAACCAAUAGAUUGCAUCGGUUUAAAAGGCAAGACCGUCAAAUUGCGGGAAAGGGGUCAACAGCCGUUCAGUACCAAGUCUCAGGGGAAACUUUGAGAUGGCCUUGCAAAGGGUAUGGUAAUAAGCUGACGGACAUGGUCCUAACCACGCAGCCAAGUCCUAAGUCAACAGAUCUUCUGUUGAUAUGGAUGCAGUUCACAGACUAAAUGUCGGUCGGGGAAGAUGUAUUCUUCUCAUAAGAUAUAGUCGGACCUCUCCUUAAUGGGAGCUAGCGGAUGAAGUGAUGCAACACUGGAGCCGCUGGGAACUAAUUUGUAUGCGAAAGUAUAUUGAUUAGUUUUGGAGUACUCGUGGUCG
Procedure, shortened: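 Pooled colonies went to amplicon sequencing on an Illumina HiSeq 2500 after six replicate transformations. The plates were LB agar with 100 μg/mL carbenicillin, 50 μM IPTG and 0.2% rhamnose, with or without 25 μg/mL kanamycin, incubated overnight at 37°C or 30°C. The E. coli BL21(DE3) library had all eight P1ex-region intron nucleotides randomised, the intron placed in the knt kanamycin-resistance gene on pET-22b(+). DiMSum fitness is the error-weighted combination of replicate fold changes, kanamycin against none, normalised to wild type.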

## UGUCAGCAAUAUUACGUGCA
30 °C
  self-splicing fitness (ln): -0.626 ± 0.09
37 °C
  self-splicing fitness (ln): -0.232 ± 0.1

## UGUCAGCAAUAUUACGUUCG
30 °C
  self-splicing fitness (ln): 0.194 ± 0.073
37 °C
  self-splicing fitness (ln): 0.709 ± 0.1

## UGUGAGCAAUAUUACGAAGG
30 °C
  self-splicing fitness (ln): -3.98 ± 0.33
37 °C
  self-splicing fitness (ln): -2.19 ± 0.3

## UGUGAGCAAUAUUACGACAA
30 °C
  self-splicing fitness (ln): -1.97 ± 0.14
37 °C
  self-splicing fitness (ln): -1.68 ± 0.14

## UGUGAGCAAUAUUACGACGC
30 °C
  self-splicing fitness (ln): -2.98 ± 0.33
37 °C
  self-splicing fitness (ln): -2.67 ± 0.38

## UGUGAGCAAUAUUACGACUG
30 °C
  self-splicing fitness (ln): -1.04 ± 0.18
37 °C
  self-splicing fitness (ln): -0.343 ± 0.29

## UGUGAGCAAUAUUACGAUGG
30 °C
  self-splicing fitness (ln): -2.74 ± 0.2
37 °C
  self-splicing fitness (ln): -2.27 ± 0.19

## UGUGAGCAAUAUUACGCCAA
30 °C
  self-splicing fitness (ln): -1.67 ± 0.5
37 °C
  self-splicing fitness (ln): -0.355 ± 0.39

## UGUGAGCAAUAUUACGCCGG
30 °C
  self-splicing fitness (ln): -3.85 ± 0.25
37 °C
  self-splicing fitness (ln): -1.98 ± 0.33

## UGUGAGCAAUAUUACGCCUU
30 °C
  self-splicing fitness (ln): -2.28 ± 0.4

## UGUGAGCAAUAUUACGCUAG
30 °C
  self-splicing fitness (ln): -3.43 ± 0.32
37 °C
  self-splicing fitness (ln): -1.59 ± 0.2

## UGUGAGCAAUAUUACGCUGA
30 °C
  self-splicing fitness (ln): -2.24 ± 0.46

## UGUGAGCAAUAUUACGGAAA
30 °C
  self-splicing fitness (ln): -2.62 ± 0.38
37 °C
  self-splicing fitness (ln): -2.61 ± 0.31

## UGUGAGCAAUAUUACGGAGG
30 °C
  self-splicing fitness (ln): -3.33 ± 0.29
37 °C
  self-splicing fitness (ln): -2.11 ± 0.34

## UGUGAGCAAUAUUACGGAUA
30 °C
  self-splicing fitness (ln): -1.65 ± 0.35
37 °C
  self-splicing fitness (ln): -1.64 ± 0.34

## UGUGAGCAAUAUUACGGAUG
30 °C
  self-splicing fitness (ln): -3.1 ± 0.17
37 °C
  self-splicing fitness (ln): -1.52 ± 0.23

## UGUGAGCAAUAUUACGGCAA
30 °C
  self-splicing fitness (ln): -1.83 ± 0.23
37 °C
  self-splicing fitness (ln): -1.27 ± 0.25

## UGUGAGCAAUAUUACGGCGA
30 °C
  self-splicing fitness (ln): -1.37 ± 0.14
37 °C
  self-splicing fitness (ln): -1.05 ± 0.15

## UGUGAGCAAUAUUACGGUGG
30 °C
  self-splicing fitness (ln): -2.64 ± 0.19
37 °C
  self-splicing fitness (ln): -3.01 ± 0.35

## UGUGAGCAAUAUUACGUAAA
30 °C
  self-splicing fitness (ln): -2.31 ± 0.15
37 °C
  self-splicing fitness (ln): -1.31 ± 0.21

## UGUGAGCAAUAUUACGUAAG
30 °C
  self-splicing fitness (ln): -1.7 ± 0.15
37 °C
  self-splicing fitness (ln): -0.85 ± 0.21

## UGUGAGCAAUAUUACGUAUC
30 °C
  self-splicing fitness (ln): -3.75 ± 0.37
37 °C
  self-splicing fitness (ln): -2.3 ± 0.32

## UGUGAGCAAUAUUACGUCUA
30 °C
  self-splicing fitness (ln): -1.51 ± 0.16
37 °C
  self-splicing fitness (ln): -1.36 ± 0.15

## UGUGAGCAAUAUUACGUGAG
30 °C
  self-splicing fitness (ln): -1.67 ± 0.14
37 °C
  self-splicing fitness (ln): -1.52 ± 0.18

## UGUUAGCAAUAUUACGAACC
30 °C
  self-splicing fitness (ln): -0.427 ± 0.21
37 °C
  self-splicing fitness (ln): 0.133 ± 0.25

## UGUUAGCAAUAUUACGAGCG
30 °C
  self-splicing fitness (ln): 0.176 ± 0.095
37 °C
  self-splicing fitness (ln): -0.175 ± 0.12

## UGUUAGCAAUAUUACGCAAU
30 °C
  self-splicing fitness (ln): -4.18 ± 0.42
37 °C
  self-splicing fitness (ln): -2.67 ± 0.27

## UGUUAGCAAUAUUACGCAUA
30 °C
  self-splicing fitness (ln): -1.72 ± 0.21
37 °C
  self-splicing fitness (ln): -0.397 ± 0.16

## UGUUAGCAAUAUUACGCGCG
30 °C
  self-splicing fitness (ln): -1.36 ± 0.19
37 °C
  self-splicing fitness (ln): -0.771 ± 0.21

## UGUUAGCAAUAUUACGGACA
30 °C
  self-splicing fitness (ln): -1.59 ± 0.23
37 °C
  self-splicing fitness (ln): -0.73 ± 0.2

## UGUUAGCAAUAUUACGGCAC
30 °C
  self-splicing fitness (ln): -1.58 ± 0.47
37 °C
  self-splicing fitness (ln): -1.51 ± 0.43

## UGUUAGCAAUAUUACGGGUG
30 °C
  self-splicing fitness (ln): -0.781 ± 0.071
37 °C
  self-splicing fitness (ln): -0.441 ± 0.086

## UGUUAGCAAUAUUACGGUAG
30 °C
  self-splicing fitness (ln): -0.65 ± 0.22
37 °C
  self-splicing fitness (ln): -0.35 ± 0.19

## UGUUAGCAAUAUUACGGUCA
30 °C
  self-splicing fitness (ln): 0.281 ± 0.096
37 °C
  self-splicing fitness (ln): 0.169 ± 0.11

## UGUUAGCAAUAUUACGGUGC
30 °C
  self-splicing fitness (ln): -3.76 ± 0.43
37 °C
  self-splicing fitness (ln): -2.88 ± 0.32

## UGUUAGCAAUAUUACGUAAA
30 °C
  self-splicing fitness (ln): -0.887 ± 0.14
37 °C
  self-splicing fitness (ln): 0.19 ± 0.21

## UGUUAGCAAUAUUACGUACU
30 °C
  self-splicing fitness (ln): 0.199 ± 0.2
37 °C
  self-splicing fitness (ln): 0.344 ± 0.18

## UGUUAGCAAUAUUACGUAUU
37 °C
  self-splicing fitness (ln): -2.12 ± 0.3

## UGUUAGCAAUAUUACGUCUC
30 °C
  self-splicing fitness (ln): -4.05 ± 0.42
37 °C
  self-splicing fitness (ln): -2.07 ± 0.31
